Reference: PMC10823521

Molecular target: H3·H4 heterodimer (human H3.3 and H4) (human) (UniProt P84243)
Assay: high-speed atomic force microscopy; purified nucleosomes, hexasomes and de novo tetrasomes on 601 DNA (200W100), 1.5-3.5 nM, on bare mica, imaged in 10-fold-diluted buffer A at 1-2 fps, room temperature; histone core volume tracked over time; DNA present

Q: With “H3·H4 heterodimer (human H3.3 and H4) (from UniProt P84243 1-136; P62805 1-103) (complex)” as the substance, how does the observation time until one H3·H4 dimer was dislodged from a de novo tetrasome read?
A: 2 min
